From patent US20200262894A1 (FRED HUTCHINSON CANCER RESEARCH CENTER, published 2020)
Non-standard residues stand in square brackets, D forms with d.

Assays:
Assay in all cases: flow cytometry, cytometric bead array with BSA-coupled peptides
[1] = target: T1, STII peptide H2N-CGNWSHPQFEKGC-OH, maleimide-coupled to BSA carrier protein (cysteine pairing not given here; also: maleimide-coupled to BSA carrier protein)
T1 construct: on a cytometric bead array as BSA conjugate
T1 peptide: H-CGNWSHPQFEKGC-OH

[2] = target: T2, STII peptide H2N-CGNWSHPQFEK-amide, maleimide-coupled to BSA carrier protein (also: maleimide-coupled to BSA carrier protein)
T2 construct: on a cytometric bead array as BSA conjugate
T2 peptide: H-CGNWSHPQFEK-NH2

[3] = target: T3, STII peptide Ac-C(dPEG4)NWSHPQFEK-amide, maleimide-coupled to BSA carrier protein (also: maleimide-coupled to BSA carrier protein)
T3 construct: on a cytometric bead array as BSA conjugate
T3 peptide: Ac-C[dPEG4]NWSHPQFEK-NH2

Measured: binding result

B1: anti-STII monoclonal antibody 4E2 (antibody, V domains shown)
VH: QVQLQQSGAELARPGASVKLSCTASGYTFTSYGITWVRQRTGQGLEWIGEIFPGSGDTSYGEKLKGQATLTTDKSSSTAYMQLSSLTSEDSAVYFCARRYRYIYHAMDYWGQGTSVTVSS
VL: DILMTQTPLSLPVSLGDQASISCRSSQSIVHSNGNTYLEWYLQKPGQSPKLLIYKVSNRFSGVPDRFSGSGSGTDFTLKISRVEAEDLGVYYCFQGSHVPLTFGAGTKLELK
notes: also called 4E2 mAb
binds: all assays above

B2: anti-STII monoclonal antibody 3E8 (antibody, V domains shown)
VH: EVQLVETGGGFVKPGGSLKLSCAASGFTFSSYGMSWVRQTPEKRLEWVAAITSDGGGTHYPDTVKGRFTISRDFAKNTLYLQMSSLRSEDTAWYFCARHEPRLIAWFAHWGQGTLVTVSA
VL: DVLMTQTPLSLPVSLGDQASISCRSSQSIVHSNGYTYLEWYLQKPGQSPKLLIYEVSNRFSGVPDRFSGSGSGTDFTLKIIRVEAEDLGVYYCFQGSHVPWTFGGGTKLEIK
notes: also called 3E8 mAb; STII-specific mAb 3E8
binds: all assays above

B3: anti-STII monoclonal antibody 5G2 (antibody, V domains shown)
VH: QVQLQQSGAELARPGASVKLSCTASGYTFTSYGITWVRQRTGQGLEWIGEIFPGSGDTSYGEKFKGQATLTTDKSSSTAYMQLSSLTSEDSAVYFCARRYRYIYHAMDYWGQGTSVTVSS
VL: DILMTQTPLSLPVSLGDQASISCRSSQSIVHSNGNTYLEWYLQKPGQSPKLLIYKVSNRFSGVPDRFSGSGSGTDFTLKIRRVEAEDLGVYYCFQGSHVPLTFGAGTKLELK
notes: also called 5G2 mAb; anti-STII 5G2 mAb
binds: all assays above
